From PMC12176259, “Bacterial transcriptional repressor NrdR – a flexible multifactorial nucleotide sensor” (The Febs Journal, 2024)
Where “and” joins values, the source holds several entries; their conditions need not be identical. Equal entries are not always repeated.

Key:
[1] = target: the molecule itself; experiment: SEC; Superdex 200 PC 3.2/30, 4–8 °C, Tris–HCl pH 9.0, 300 mM NaCl; NrdR pre‐incubated with ATP and dATP, nucleotides in the SEC buffer; 7–55 μM NrdR
[2] = target: the molecule itself; experiment: SEC; Superdex 200 PC 3.2/30, 4–8 °C, Tris–HCl pH 9.0, 300 mM NaCl; ATP‐loaded NrdR (0.1 mM ATP), low MgCl2 (0.1–0.2 mM); 17–55 μM NrdR
[3] = target: the molecule itself; experiment: SEC; Superdex 200 PC 3.2/30, 4–8 °C, Tris–HCl pH 9.0, 300 mM NaCl; NrdR pre‐incubated with AMP and dAMP
[4] = target: the molecule itself; experiment: SEC; Superdex 200 PC 3.2/30, 4–8 °C, 25 or 50 mM Tris–HCl pH 9.0, 300 mM NaCl; 55 μM apo‐NrdR, no nucleotide effectors
[5] = target: the molecule itself; experiment: SEC; ATP‐dATP‐loaded NrdR at high protein concentrations (440–550 μM)
[6] = target: the molecule itself; experiment: SEC; Superdex 200 PC 3.2/30, 4–8 °C, Tris–HCl pH 9.0, 300 mM NaCl; NrdR with 0.2 mM ADP and 0.2 mM MgCl2
[7] = target: the molecule itself; experiment: SEC; Superdex 200 PC 3.2/30, 4–8 °C, Tris–HCl pH 9.0, 300 mM NaCl; NrdR pre‐incubated with ADP and dATP, nucleotides in the SEC buffer; 10–90 μM NrdR
[8] = target: the molecule itself; experiment: SEC; Superdex 200 PC 3.2/30, 4–8 °C, Tris–HCl pH 9.0, 300 mM NaCl; ATP‐loaded NrdR, excess MgCl2 (1 mM or higher); elutes in the void volume
[9] = target: the molecule itself; experiment: crystal structure; SeMet‐EcoNrdR with ATP and dATP, 10 mg/mL; 0.1 M HEPES pH 7.5, 0.2 M MgCl2, 12.5% PEG 3350, 20 °C; one tetramer in the asymmetric unit

B1: Escherichia coli NrdR (natural protein, E. coli K‐12 strain MG1655)
chain: MHCPFCFAVDTKVIDSRLVGEGSSVRRRRQCLVCNERFTTFEVAELVMPRVVKSNDVREPFNEEKLRSGMLRALEKRPVSSDDVEMAINHIKSQLRATGEREVPSKMIGNLVMEQLKKLDKVAYIRFASVYRSFEDIKEFGEEIARLED
notes: Transcriptional repressor NrdR of E. coli K‐12 strain MG1655, wild type (NP_414947.1); The oligomeric state depends on the loaded nucleotides (apo: dimer); ATP‐dATP, ADP‐dATP, ADP, AMP‐dAMP: tetramer; also called EcoNrdR; E. coli NrdR; source: E. coli BL21(DE3), purified (HisTrap FF Ni‐Sepharose, desalting)
For B1, the “stoichiometry N” value [1] was 4.5 subunits, the “stoichiometry N” value [2] was 12.1 subunits and the “stoichiometry N” value [3] was 4.8 subunits. For the same protein, the “stoichiometry N” value [4] was 2.1 subunits, the “stoichiometry N” value [5] was 8 subunits and 16 subunits and the “stoichiometry N” value [6] was 4.5 subunits. The “stoichiometry N” value [7] was 4.8 subunits and the “stoichiometry N” value [8] was > 33 subunits.

B2: Selenomethionine‐derivatized Escherichia coli NrdR (natural protein, E. coli K‐12 strain MG1655)
chain: MHCPFCFAVDTKVIDSRLVGEGSSVRRRRQCLVCNERFTTFEVAELVMPRVVKSNDVREPFNEEKLRSGMLRALEKRPVSSDDVEMAINHIKSQLRATGEREVPSKMIGNLVMEQLKKLDKVAYIRFASVYRSFEDIKEFGEEIARLED
modifications: selenomethionine in place of methionine
notes: Transcriptional repressor NrdR of E. coli K‐12 strain MG1655, wild type (NP_414947.1), from the same plasmid pET30a(+)::nrdR as m1; Same construct as m1, made in a methionine auxotroph with seleno‐L‐methionine; also called SeMet‐EcoNrdR; Se‐Met substituted EcoNrdR; source: E. coli B834 (DE3) in SelenoMet Minimal Media, purified
B2: binds [9].
